Experimental data: paper PMC2119758

Target: rabbit muscle F-actin (polymerized rabbit muscle actin) (rabbit) (UniProt P68135)
Test: co-sedimentation

Substance: GST.p80 fusion protein (cortactin p80 residues 55-526) (domain or fragment)
- stoichiometry N (actin monomers per GST.p80): 14

Substance: bacterially expressed cortactin (p80 residues 55-526) after removal of GST with thrombin (domain or fragment)
- fold increase of affinity against GST.p80: 2 fold
